Laboratory results: patent US20240391954A1, “MC4R AGONIST PEPTIDES” (The Regents of the University of Michigan, priority 2021, published 2024)
Starred links: 1 amine or outer side, 2 acyl side, 3 side chain; linkers in the order of their positions; H or OH if unused. Positions of bridges follow the written chain, without caps; N, C: chain ends. Non-standard residues stand in square brackets, D forms with d. dTyr(4-OMe) = O-methyl-D-tyrosine (4-OMe), COc1ccc(C[C@@H](N[*:1])C(=O)[*:2])cc1; Cit = NC(=O)NCCC[C@H](N)C(=O)O; Nle = CCCC[C@H](N)C(=O)O; Aib = CC(C)(N)C(=O)O

How the values were obtained:
Assay in all cases: cell-based or functional assay
human MC3R = human MC3R (human, UniProt P41968 1-323)
human MC4R receptor [1] = target: T1, human MC4R receptor (human, UniProt P32245 1-332)
human MC4R receptor [2] = target: T1, human MC4R receptor; remark: listed apart in the source

Sequence of human MC3R (P41968 whole entry): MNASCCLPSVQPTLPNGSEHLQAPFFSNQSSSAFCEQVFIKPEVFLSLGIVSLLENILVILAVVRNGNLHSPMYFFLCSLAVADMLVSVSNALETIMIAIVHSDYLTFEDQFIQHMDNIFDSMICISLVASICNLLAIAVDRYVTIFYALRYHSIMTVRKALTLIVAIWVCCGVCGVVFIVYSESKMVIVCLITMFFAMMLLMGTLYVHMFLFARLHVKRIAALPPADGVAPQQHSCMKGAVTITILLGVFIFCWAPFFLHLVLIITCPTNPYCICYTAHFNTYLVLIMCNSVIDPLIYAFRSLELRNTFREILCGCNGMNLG
T1 sequence (P32245 whole entry): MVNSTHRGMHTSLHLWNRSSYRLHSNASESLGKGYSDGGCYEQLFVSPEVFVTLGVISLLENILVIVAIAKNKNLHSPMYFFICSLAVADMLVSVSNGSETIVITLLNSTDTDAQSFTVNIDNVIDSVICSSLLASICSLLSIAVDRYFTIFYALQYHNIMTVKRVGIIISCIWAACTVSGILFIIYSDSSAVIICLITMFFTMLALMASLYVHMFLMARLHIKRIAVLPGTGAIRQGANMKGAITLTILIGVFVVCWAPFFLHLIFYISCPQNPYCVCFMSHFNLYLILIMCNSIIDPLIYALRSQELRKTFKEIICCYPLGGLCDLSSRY

| Binder | % max activation (human MC3R) [%] | cAMP EC50 (human MC3R) [nM] | % max activation (human MC4R receptor [1]) [%] | cAMP EC50 (human MC4R receptor [1]) [nM] | MC4R selectivity vs MC1R (human MC4R receptor [2]) | MC4R selectivity vs MC3R (human MC4R receptor [2]) |
| --- | --- | --- | --- | --- | --- | --- |
| Ac-C[Aib]R[dF]RFC-NH2 (disulfide 1-7; SMILES CC(=O)N[C@H]1CSSC[C@@H](C(N)=O)NC(=O)[C@H](Cc2ccccc2)NC(=O)[C@H](CCCNC(=N)N)NC(=O)[C@@H](Cc2ccccc2)NC(=O)[C@H](CCCNC(=N)N)NC(=O)C(C)(C)NC1=O) [CTX-1635] | 70 | 380 | 112 | 67 | 1.19 | 5.7 |
| Ac-R[Nle]C[Cit][dF]RFC-NH2 (disulfide 3-8; SMILES CCCC[C@H](NC(=O)[C@H](CCCNC(=N)N)NC(C)=O)C(=O)N[C@H]1CSSC[C@@H](C(N)=O)NC(=O)[C@H](Cc2ccccc2)NC(=O)[C@H](CCCNC(=N)N)NC(=O)[C@@H](Cc2ccccc2)NC(=O)[C@H](CCCNC(N)=O)NC1=O) [CTX-1626] | 51 | 678 | 83 | 425 | 3.05 | 1.6 |
| Ac-C[Aib][Cit][dF]RWC-NH2 (disulfide 1-7; SMILES CC(=O)N[C@H]1CSSC[C@@H](C(N)=O)NC(=O)[C@H](Cc2c[nH]c3ccccc23)NC(=O)[C@H](CCCNC(=N)N)NC(=O)[C@@H](Cc2ccccc2)NC(=O)[C@H](CCCNC(N)=O)NC(=O)C(C)(C)NC1=O) [CTX-1633] | 45 | 290 | 110 | 2.8 | 942 | 104 |
| Ac-C[dA]R[dF]RWC-NH2 (disulfide 1-7; SMILES CC(=O)N[C@H]1CSSC[C@@H](C(N)=O)NC(=O)[C@H](Cc2c[nH]c3ccccc23)NC(=O)[C@H](CCCNC(=N)N)NC(=O)[C@@H](Cc2ccccc2)NC(=O)[C@H](CCCNC(=N)N)NC(=O)[C@@H](C)NC1=O) [CTX-1627] | 98 | 3.7 | 104 | 1.4 | 9.33 | 2.47 |
| Ac-CG[Cit][dF]RWC-NH2 (disulfide 1-7; SMILES CC(=O)N[C@H]1CSSC[C@@H](C(N)=O)NC(=O)[C@H](Cc2c[nH]c3ccccc23)NC(=O)[C@H](CCCNC(=N)N)NC(=O)[C@@H](Cc2ccccc2)NC(=O)[C@H](CCCNC(N)=O)NC(=O)CNC1=O) [CTX-1630] | 35 | 614 | 102 | 22 | 1820 | 28 |
| Ac-C[dA][Cit][dF]RWC-NH2 (disulfide 1-7; SMILES CC(=O)N[C@H]1CSSC[C@@H](C(N)=O)NC(=O)[C@H](Cc2c[nH]c3ccccc23)NC(=O)[C@H](CCCNC(=N)N)NC(=O)[C@@H](Cc2ccccc2)NC(=O)[C@H](CCCNC(N)=O)NC(=O)[C@@H](C)NC1=O) [CTX-1628] | 45 | 92 | 99 | 14 | 191 | 6.37 |
| Ac-C[Aib][Cit][dF]RFC-NH2 (disulfide 1-7; SMILES CC(=O)N[C@H]1CSSC[C@@H](C(N)=O)NC(=O)[C@H](Cc2ccccc2)NC(=O)[C@H](CCCNC(=N)N)NC(=O)[C@@H](Cc2ccccc2)NC(=O)[C@H](CCCNC(N)=O)NC(=O)C(C)(C)NC1=O) [CTX-1636] | 44 | 7460 | 102 | 791 | > 12 | 9.44 |
| Ac-C[Aib]R[dF]RWC-NH2 (disulfide 1-7; SMILES CC(=O)N[C@H]1CSSC[C@@H](C(N)=O)NC(=O)[C@H](Cc2c[nH]c3ccccc23)NC(=O)[C@H](CCCNC(=N)N)NC(=O)[C@@H](Cc2ccccc2)NC(=O)[C@H](CCCNC(=N)N)NC(=O)C(C)(C)NC1=O) [CTX-1632] | 77 | 19 | 105 | 0.51 | 3.18 | 36 |
| Ac-CGR[dF]RWC-NH2 (disulfide 1-7; SMILES CC(=O)N[C@H]1CSSC[C@@H](C(N)=O)NC(=O)[C@H](Cc2c[nH]c3ccccc23)NC(=O)[C@H](CCCNC(=N)N)NC(=O)[C@@H](Cc2ccccc2)NC(=O)[C@H](CCCNC(=N)N)NC(=O)CNC1=O) [CTX-1629] | 83 | 13 | 102 | 0.67 | 15 | 19 |
| Ac-C[Aib]H[dF]RFC-NH2 (disulfide 1-7; SMILES CC(=O)N[C@H]1CSSC[C@@H](C(N)=O)NC(=O)[C@H](Cc2ccccc2)NC(=O)[C@H](CCCNC(=N)N)NC(=O)[C@@H](Cc2ccccc2)NC(=O)[C@H](Cc2c[nH]cn2)NC(=O)C(C)(C)NC1=O) [CTX-1634] | 94 | 56 | 107 | 8.5 | 4.02 | 6.68 |
| Ac-R[Nle]CR[dTyr(4-OMe)]RFC-NH2 (disulfide 3-8; SMILES CCCC[C@H](NC(=O)[C@H](CCCNC(=N)N)NC(C)=O)C(=O)N[C@H]1CSSC[C@@H](C(N)=O)NC(=O)[C@H](Cc2ccccc2)NC(=O)[C@H](CCCNC(=N)N)NC(=O)[C@@H](Cc2ccc(OC)cc2)NC(=O)[C@H](CCCNC(=N)N)NC1=O) [CTX-1624] | 66 | 5.6 | 83 | 12 | 0.15 | 0.47 |
